T1: human FcγRIIb (human, UniProt P31994 46-217)
T1 construct: bought, His-tagged, on Ni2+ Acceptor beads; also called FcγRIIb/c (CD32b/c)
T1 sequence (looked up): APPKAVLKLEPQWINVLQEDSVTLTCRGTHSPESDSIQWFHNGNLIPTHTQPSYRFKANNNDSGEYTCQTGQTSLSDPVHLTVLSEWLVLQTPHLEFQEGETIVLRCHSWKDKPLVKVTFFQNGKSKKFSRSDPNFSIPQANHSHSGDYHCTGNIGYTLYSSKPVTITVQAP

T2: human FcγRIIa (CD32a) (human, UniProt P12318 36-218)
T2 construct: bought, His-tagged, on Ni2+ Acceptor beads
T2 sequence (looked up): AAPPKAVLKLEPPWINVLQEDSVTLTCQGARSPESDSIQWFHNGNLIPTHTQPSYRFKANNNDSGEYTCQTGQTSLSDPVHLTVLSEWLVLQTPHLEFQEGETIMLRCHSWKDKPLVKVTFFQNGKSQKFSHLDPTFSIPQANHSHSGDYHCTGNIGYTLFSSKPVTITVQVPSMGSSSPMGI

B1: CD3B219 (antibody, human IgG4 S228P, lambda, F234A L235A, V domains shown)
VH: EVQLVESGGGLVQPGGSLRLSCAASGFTFNTYAMNWVRQAPGKGLEWVARIRSKYNNYATYYAASVKGRFTISRDDSKNSLYLQMNSLKTEDTAVYYCARHGNFGNSYVSWFAYWGQGTLVTVSS
VL: QTVVTQEPSLTVSPGGTVTLTCRSSTGAVTTSNYANWVQQKPGQAPRGLIGGTNKRAPGTPARFSGSLLGGKAALTLSGVQPEDEAEYYCALWYSNLWVFGGGTKLTVLG
notes: IgG4 PAA anti-CD3 parental antibody; also called anti-CD3 antibody CD3B219; anti-CD3 antibodies
B2: CD3B219 (antibody, human IgG4 S228P, lambda, F234A L235A, V domains shown)
VH: B1 VH
VL: B1 VL
notes: parental anti-CD3 mAb; also called anti-CD3 antibody; Anti-CD3
B3: RR1B78 (antibody, human IgG4 S228P, kappa, F234A L235A, V domains shown)
VH: EVQLVQSGAEVKKPGESLKISCKGSGYSFTSYWIGWVRQMPGKGLEWMGIIYPGDSDTRYSPSFQGQVTISADKSISTAYLQWSSLKASDTAMYYCARDVGRWAPGGFLDYWGQGTLVTVSS
VL: not shown
notes: huIgG4 PAA/kappa
B4: RCDB13 (bispecific antibody, human IgG4 S228P, kappa, lambda, F234A L235A)
heavy 1: not shown
light 1: not shown
heavy 2: EVQLVESGGGLVQPGGSLRLSCAASGFTFNTYAMNWVRQAPGKGLEWVARIRSKYNNYATYYAASVKGRFTISRDDSKNSLYLQMNSLKTEDTAVYYCARHGNFGNSYVSWFAYWGQGTLVTVSSASTKGPSVFPLAPCSRSTSESTAALGCLVKDYFPEPVTVSWNSGALTSGVHTFPAVLQSSGLYSLSSVVTVPSSSLGTKTYTCNVDHKPSNTKVDKRVESKYGPPCPPCPAPEAAGGPSVFLFPPKPKDTLMISRTPEVTCVVVDVSQEDPEVQFNWYVDGVEVHNAKTKPREEQFNSTYRVVSVLTVLHQDWLNGKEYKCKVSNKGLPSSIEKTISKAKGQPREPQVYTLPPSQEEMTKNQVSLTCLVKGFYPSDIAVEWESNGQPENNYKTTPPVLDSDGSFLLYSKLTVDKSRWQEGNVFSCSVMHEALHNHYTQKSLSLSLGK
light 2: QTVVTQEPSLTVSPGGTVTLTCRSSTGAVTTSNYANWVQQKPGQAPRGLIGGTNKRAPGTPARFSGSLLGGKAALTLSGVQPEDEAEYYCALWYSNLWVFGGGTKLTVLGQPKAAPSVTLFPPSSEELQANKATLVCLISDFYPGAVTVAWKADSSPVKAGVETTTPSKQSNNKYAASSYLSLTPEQWKSHRSYSCQVTHEGSTVEKTVAPTECS
notes: DuoBody IgG4 PAA, ROR1 arm + CD3B219 arm; also called RR1B78 × CD3B219
B5: RCDB12 (bispecific antibody, human IgG4 S228P, kappa, lambda, F234A L235A)
heavy 1: not shown
light 1: not shown
heavy 2: B4 heavy 2
light 2: B4 light 2
notes: DuoBody IgG4 PAA, ROR1 arm + CD3B219 arm; also called RR1B77 × CD3B219
B6: RCDB7 (bispecific antibody, human IgG4 S228P, kappa, lambda, F234A L235A)
heavy 1: not shown
light 1: not shown
heavy 2: B4 heavy 2
light 2: B4 light 2
notes: DuoBody IgG4 PAA, ROR1 arm + CD3B219 arm; also called RR1B70 × CD3B219
B7: RCDB9 (bispecific antibody, human IgG4 S228P, kappa, lambda, F234A L235A)
heavy 1: not shown
light 1: not shown
heavy 2: B4 heavy 2
light 2: B4 light 2
notes: DuoBody IgG4 PAA, ROR1 arm + CD3B219 arm; also called RR1B72 × CD3B219
B8: RCDB5 (bispecific antibody, human IgG4 S228P, kappa, lambda, F234A L235A)
heavy 1: not shown
light 1: not shown
heavy 2: B4 heavy 2
light 2: B4 light 2
notes: DuoBody IgG4 PAA, ROR1 arm + CD3B219 arm
B9: RCDB11 (bispecific antibody, human IgG4 S228P, kappa, lambda, F234A L235A)
heavy 1: not shown
light 1: not shown
heavy 2: B4 heavy 2
light 2: B4 light 2
notes: DuoBody IgG4 PAA, ROR1 arm + CD3B219 arm; also called RR1B76 × CD3B219
B10: RCDB17 (bispecific antibody, human IgG4 S228P, kappa, lambda, F234A L235A)
heavy 1: not shown
light 1: not shown
heavy 2: B4 heavy 2
light 2: B4 light 2
notes: DuoBody IgG4 PAA, ROR1 arm + CD3B219 arm; also called RR1B85 × CD3B219
B11: RCDB6 (bispecific antibody, human IgG4 S228P, kappa, lambda, F234A L235A)
heavy 1: not shown
light 1: not shown
heavy 2: B4 heavy 2
light 2: B4 light 2
notes: as for B8
B12: RCDB5 (bispecific antibody, human IgG4 S228P, kappa, lambda, F234A L235A)
heavy 1: not shown
light 1: not shown
heavy 2: B4 heavy 2
light 2: B4 light 2
notes: also called ROR1×CD3 bispecific antibody
B13: RR1B67 (antibody, human IgG4 S228P, kappa, F234A L235A, V domains shown)
VH: QVQLVQSGAEVKKPGSSVKVSCKASGGTFSTYAIHWVRQAPGQGLEWMGRIIPIEGRAYYAQKFQGRVTITADESTSTAYMELSSLRSEDTAVYYCARGRYSYRYWFDYWGQGTLVTVSS
VL: EIVLTQSPATLSLSPGERATLSCRASQSVSSYLAWYQQKPGQAPRLLIYDASNRATGIPARFSGSGSGTDFTLTISSLEPEDFAVYYCQQRSNWPLTFGQGTKVEIKR
notes: huIgG4 PAA, kappa; also called RRIB67

Legend:
[1] = biological target: T3, human ROR1 (Receptor Tyrosine Kinase-Like Orphan Receptor 1) on cells (human, UniProt Q01973 30-937); experiment: cell binding, ROR1 expressing H358 cells
T3 construct: whole, on cells; endogenous on SKMES-1, MDA-MB231, H358, HCC827 and MCL lines, or on HEK293 cells transfected with human ROR1 (pDR25226); the cell line is named under assay; also called cell-surface ROR1; hu ROR1

[2] = biological target: T4, ROR1 extracellular domain c-Mer proto-oncogene tyrosine kinase transmembrane domain (ROR1 ECD MERTK tm) (Homo sapiens (Human), UniProt Q01973 30-405); experiment: cell binding, ROR1 transiently transfected HEK293F cells
T4 construct: also called RR1W1; ROR1-Transfected CHO

[3] = biological target: T5, human ROR1 (Receptor Tyrosine Kinase-Like Orphan Receptor 1) on cells (human, UniProt Q01973 30-937); experiment: cell binding, H358 cells
T5 construct: whole, on cells; also called hu ROR1

[4] = biological target: ROR1 ECD MERTK tm (RR1W1) on transfected HEK293F cells (Homo sapiens (Human), UniProt Q01973 30-405); experiment: cell binding, ROR1 transfected 293F cells
[5] = biological target: T3, human ROR1 (Receptor Tyrosine …); experiment: detection of control ROR1+ cell lines spiked into fixed whole blood
[6] = biological target: T5, human ROR1 (Receptor Tyrosine …); experiment: MSD-CAT, HEK293 cells expressing human ROR1
[7] = biological target: T5, human ROR1 (Receptor Tyrosine …); experiment: flow cytometry, HCC827 cells
[8] = biological target: T5, human ROR1 (Receptor Tyrosine …); experiment: cell-based or functional assay
[9] = biological target: T3, human ROR1 (Receptor Tyrosine …); experiment: MSD-CAT; 1000 pM antibody equilibrated with serially diluted HEK293 cells overexpressing human ROR1
[10] = biological target: T6, human FcRn (FCGRT/B2M Heterodimer) (human, UniProt P55899 24-297; P61769 21-119); experiment: AlphaScreen competition: unlabeled competitor antibody against biotinylated B21M WT IgG1 for His-tagged human FcRn; 1x PBS, 0.05% BSA, 0.01% Tween-20, pH 6.0
T6 construct: bought heterodimer, His-tagged

[11] = biological target: T3, human ROR1 (Receptor Tyrosine …); experiment: MSD-CAT, cells expressing ROR1
[12] = biological target: T1, human FcγRIIb; experiment: competition AlphaScreen
[13] = biological target: T7, human FcγRIIIa (CD16a) (human, UniProt P08637 17-208); experiment: competition AlphaScreen
T7 construct: bought, His-tagged, on Ni2+ Acceptor beads

[14] = biological target: T8, human FcγRI (CD64) (human, UniProt P12314 16-288); experiment: competition AlphaScreen
T8 construct: bought, His-tagged, on Ni2+ Acceptor beads; also called FcγR1

[15] = biological target: T3, human ROR1 (Receptor Tyrosine …); experiment: MSD-CAT; 200, 40 or 8 pM antibody equilibrated with serially diluted HEK293 cells overexpressing human ROR1
[16] = biological target: T2, human FcγRIIa (CD32a); experiment: AlphaScreen competition: unlabeled competitor antibody against biotinylated B21M WT IgG1 for His-tagged human FcγRIIa; 1x PBS, 0.05% BSA, 0.01% Tween-20, pH 7.2
[17] = biological target: T5, human ROR1 (Receptor Tyrosine …); experiment: MSD-CAT, HEK293 cells expressing human ROR1; apparent KD (bivalent, avidity)

Row | Binder | Kd [6] | EC50 [7] | Killing EC50 [8] | also measured
1 | B1 | – | – | – | binding result [1]: no binding; binding result [2]: no binding
2 | B2 | – | – | – | binding result [3]: no binding; binding result [4]: no binding
3 | B3 | – | – | – | binding result [5]: binds
4 | B4 | 0.254 nM | 1.64 nM | 0.539 nM | –
5 | B5 | 0.236 nM | 1.25 nM | – | –
6 | B6 | – | 1 nM | 16.9 nM | –
7 | B7 | 2.27 nM | 16.9 nM | 3.21 nM | –
8 | B8 | 0.331 nM | 3.74 nM | 0.454 nM | –
9 | B9 | 0.382 nM | 2.36 nM | 0.247 nM | –
10 | B10 | – | 4.72 nM | 5.17 nM | –
11 | B11 | 0.648 nM | 6.25 nM | 0.437 nM | –
12 | B12 | – | – | – | IC50 (read off the curve) [9]: ~1 nM; binding result [10]: binds; Kd [11]: ~0.3 nM; binding result [12]: binds; binding result [13]: binds; binding result [14]: binds; IC50 (read off the curve) [15]: ~0.4 nM; binding result [16]: binds
13 | B13 | – | – | – | Kd [17]: 0.055 nM

From US20170210799A1 (Janssen / Centocor, published 2017)
